{"source": "patent US20210371530A1", "about": "(Merck Sharp & Dohme, published 2021)", "binders": {"B1": {"name": "Anti-PD-1/LAG-3 bispecific antibody 18ASS (bispecific antibody, human IgG1, kappa, L234A L235A)", "heavy 1": "not shown", "light 1": "DIVMTQTPLSLSVTPGQPASISCRASKSVSTSGFSYLHWYLQKPGQPPQLLIFLSKYRSSGVPDRFSGSGSGTDFTLKISRVEAEDVGVYYCSQAYHLPLTFGQGTKLEIKRTVAAPSVFIFPPSDERLKSGTASVVCLLNNFYPREAKVQWKVDNALQSGNSQESVTEQDSKDSTYSLSSRLTLSKADYEKHKVYACEVTHQGLSSPVTKSFNRGEC", "heavy 2": "QMQLVQSGPEVKKPGTSVKVSCKASGYTFTDYNVDWVRQARGQRLEWIGDINPNDGGTIYAQKFQERVTITVDKSTSTAYMELSSLRSEDTAVYYCARNYRWFGAMDHWGQGTTVTVSSASTKGPSVFPLAPSSKSTSGGTAALGCLVKDYFPEPVTVSWNSGALTSGVHTFPAVLQSSGLYKLSSVVTVPSSSLGTQTYICNVNHKPSNTKVDKKVEPKSCDKTHTCPPCPAPEAAGGPSVFLFPPKPKDTLMISRTPEVTCVVVSVSHEDPEVKFNWYVDGVEVHNAKTKPREEQYNSTYRVVSVLTVLHQDWLNGKEYKCKVSNKALPAPIEKTISKAKGQPREPQVYVLPPSRDELTKNQVSLLCLVKGFYPSDIAVEWESNGQPENNYLTWPPVLDSDGSFFLYSKLTVDKSRWQQGNVFSCSVMHEALHNHYTQKSLSLSPG", "light 2": "DIVMTQTPLSLSVTPGQPASISCKASQSLDYEGDSDMNWYLQKPGQPPQLLIYGASNLESGVPDRFSGSGSGTDFTLKISRVEAEDVGVYYCQQSTEDPRTFGGGTKVEIKRTVAAPSVFIFPPSDEELKSGTATVVCLLNNFYPREAKVQWKVDNALQSGNSQESVTEQDSKDSTYSLSSYLELSKADYEKHKVYACEVTHQGLSSPVTKSFNRGEC"}, "B2": {"name": "Anti-PD-1/LAG3 bispecific antibody 33ARK (bispecific antibody, human IgG1, kappa, L234A L235A)", "heavy 1": "EVQLVQSGAEVKKPGASVKVSCKASGYTFTSYYLYWVREAPGQGLEWIGGVNPSNGGTNFNEKFKSRVTLTVDTSISTAYMELSRLRSDDTAVYYCTRRDSNYDGGFDYWGQGTTVTVSSASTKGPSVFPLAPSSKSTSGGTAALGCEVTDYFPEPVTVSWNSGALTSGVHTFPAVLESSGLYSLSSVVTVPSSSLGTQTYICNVNHKPSNTKVDKKVEPKSCDKTHTCPPCPAPEAAGGPSVFLFPPKPKDTLMISRTPEVTCVVVSVSHEDPEVKFNWYVDGVEVHNAKTKPREEQYNSTYRVVSVLTVLHQDWLNGKEYKCKVSNKALPAPIEKTISKAKGQPREPQVYVLPPSRDELTKNQVSLLCLVKGFYPSDIAVEWESNGQPENNYLTWPPVLDSDGSFFLYSKLTVDKSRWQQGNVFSCSVMHEALHNHYTQKSLSLSPG", "light 1": "DIVMTQTPLSLSVTPGQPASISCRASKSVSTSGFSYLHWYLRKPGQPPQLLIFLASNLESGVPDRFSGSGSGTDFTLKISRVEAEDVGVYYCQHSWELPLTFGQGTKLEIKRTVAAPSVFIFPPSDERLKSGTASVVCLLNNFYPREAKVQWKVDNALQSGNSKESVTEQDSKDSTYSLSSRLTLSKADYEKHKVYACEVTHQGLSSPVTKSFNRGEC", "heavy 2": "not shown", "light 2": "B1 light 2 with Q42E, T135S, Q164E, Y182T"}, "B3": {"name": "Fab 00APE (humanized 08A Fab with S61N correction) (Fab, V domains shown)", "VH": "EVQLVQSGAEVKKPGASVKVSCKASGYTFTSYYLYWVRQAPGQGLEWIGGVNPSNGGTNFNEKFKSRVTLTVDTSISTAYMELSRLRSDDTAVYYCTRRDSNYDGGFDYWGQGTTVTVSS", "VL": "DIVMTQTPLSLSVTPGQPASISCRASKSVSTSGFSYLHWYLQKPGQPPQLLIFLASNLESGVPDRFSGSGSGTDFTLKISRVEAEDVGVYYCQHSWELPLTFGQGTKLEIKR"}}, "note": "Residue numbers refer to the chain shown, from its start. Names and notes keep the numbering of the source."}
{"molecular_target": "human PD-1 on cells (human, UniProt Q15116 25-288)", "sequence (Q15116 25-288)": "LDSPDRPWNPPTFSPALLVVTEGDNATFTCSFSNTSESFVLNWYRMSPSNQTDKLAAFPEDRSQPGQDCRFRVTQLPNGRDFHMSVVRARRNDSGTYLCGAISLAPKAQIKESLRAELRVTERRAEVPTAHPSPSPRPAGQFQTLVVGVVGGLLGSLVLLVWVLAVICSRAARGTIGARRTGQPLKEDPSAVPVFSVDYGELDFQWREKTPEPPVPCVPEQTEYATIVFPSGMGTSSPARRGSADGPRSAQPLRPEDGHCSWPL", "experiment": "cell-based or functional assay", "units": {"AVG EC50 (nM), IL-2 luciferase reporter, Jurkat.hPD-1.IL2luc + THP-1.PD-L1 assay": "nM"}}
{"binder": "B1", "AVG EC50 (nM), IL-2 luciferase reporter, Jurkat.hPD-1.IL2luc + THP-1.PD-L1 assay": 0.55}
{"binder": "B2", "AVG EC50 (nM), IL-2 luciferase reporter, Jurkat.hPD-1.IL2luc + THP-1.PD-L1 assay": 3.12}
{"binder": "B3", "AVG EC50 (nM), IL-2 luciferase reporter, Jurkat.hPD-1.IL2luc + THP-1.PD-L1 assay": 3.32}
